From patent US20080050387A1, “Non-Androgen Dependent Roles for Androgen Receptor and Non-Androgen Related Inhibitors of Androgen Receptor” (priority 2003, published 2008)

Columns and labels:
[1] = target: T1, human glucocorticoid receptor (hGR) (Homo sapiens, UniProt P04150); test: hGR transactivation luciferase assay in COS-1 cells with GSK3β; type: cell-based
T1 construct: expressed in transfected cells; host or cells: COS-1
T1 sequence (P04150 1-777): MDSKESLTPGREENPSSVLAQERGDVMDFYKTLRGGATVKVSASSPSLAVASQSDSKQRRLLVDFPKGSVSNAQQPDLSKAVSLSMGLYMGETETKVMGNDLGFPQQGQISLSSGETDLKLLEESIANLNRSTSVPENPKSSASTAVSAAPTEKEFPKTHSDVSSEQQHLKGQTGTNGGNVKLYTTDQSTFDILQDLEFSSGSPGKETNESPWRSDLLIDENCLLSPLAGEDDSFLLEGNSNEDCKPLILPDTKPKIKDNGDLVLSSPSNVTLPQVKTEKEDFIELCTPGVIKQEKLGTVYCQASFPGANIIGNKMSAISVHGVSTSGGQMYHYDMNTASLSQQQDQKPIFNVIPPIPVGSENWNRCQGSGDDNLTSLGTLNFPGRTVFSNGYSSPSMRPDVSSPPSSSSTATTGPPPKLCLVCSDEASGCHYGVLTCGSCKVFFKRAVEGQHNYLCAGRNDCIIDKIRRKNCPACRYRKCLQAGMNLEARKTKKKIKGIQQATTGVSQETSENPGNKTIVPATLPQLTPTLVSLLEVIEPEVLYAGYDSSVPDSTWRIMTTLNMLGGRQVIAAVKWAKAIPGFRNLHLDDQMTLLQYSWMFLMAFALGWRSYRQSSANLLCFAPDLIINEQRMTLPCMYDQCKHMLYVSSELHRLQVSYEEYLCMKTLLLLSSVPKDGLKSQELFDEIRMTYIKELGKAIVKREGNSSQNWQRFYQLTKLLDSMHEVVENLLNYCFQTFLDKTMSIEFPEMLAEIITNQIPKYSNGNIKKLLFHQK
Method: (§1) COS-1 and PC-3 cells were maintained in early to mid-log phase in DMEM medium, supplemented with 10% fetal bovine serum (FBS), 50 units/ml penicillin and 50 μg/ml streptormnycin in incubators with humidified air and 5% carbon dioxide at 37° C. LNCaP cells were maintained in RPMI (GIBCO/BRL) medium. Twenty-four h prior to transfection, cells washed with Hanks' buffered saline solution, trypsinized, and seeded to be a density of 40-60% confluence for transfection. Cells in 12 well plates were refed with fresh medium 2 hours before transfection and transfected according to the “SuperFect Transfection” instructions (QIAGEN). After 2-3 h incubation, cells were treated with medium supplemented with charcoal-dextran treated FBS containing either ethanol or ligands. Cells were further incubated at 37° C. for 24 h, washed with PBS, and harvested.

[2] = test system: AR; test: AR expression by immunoblot in LNCaP cells transfected with GSK3β; type: cell-based, human; settings: pCMV-GSK3β vs pCMV vector
Target sequence in this assay (P10275 whole entry T878A, the tested form may be a part): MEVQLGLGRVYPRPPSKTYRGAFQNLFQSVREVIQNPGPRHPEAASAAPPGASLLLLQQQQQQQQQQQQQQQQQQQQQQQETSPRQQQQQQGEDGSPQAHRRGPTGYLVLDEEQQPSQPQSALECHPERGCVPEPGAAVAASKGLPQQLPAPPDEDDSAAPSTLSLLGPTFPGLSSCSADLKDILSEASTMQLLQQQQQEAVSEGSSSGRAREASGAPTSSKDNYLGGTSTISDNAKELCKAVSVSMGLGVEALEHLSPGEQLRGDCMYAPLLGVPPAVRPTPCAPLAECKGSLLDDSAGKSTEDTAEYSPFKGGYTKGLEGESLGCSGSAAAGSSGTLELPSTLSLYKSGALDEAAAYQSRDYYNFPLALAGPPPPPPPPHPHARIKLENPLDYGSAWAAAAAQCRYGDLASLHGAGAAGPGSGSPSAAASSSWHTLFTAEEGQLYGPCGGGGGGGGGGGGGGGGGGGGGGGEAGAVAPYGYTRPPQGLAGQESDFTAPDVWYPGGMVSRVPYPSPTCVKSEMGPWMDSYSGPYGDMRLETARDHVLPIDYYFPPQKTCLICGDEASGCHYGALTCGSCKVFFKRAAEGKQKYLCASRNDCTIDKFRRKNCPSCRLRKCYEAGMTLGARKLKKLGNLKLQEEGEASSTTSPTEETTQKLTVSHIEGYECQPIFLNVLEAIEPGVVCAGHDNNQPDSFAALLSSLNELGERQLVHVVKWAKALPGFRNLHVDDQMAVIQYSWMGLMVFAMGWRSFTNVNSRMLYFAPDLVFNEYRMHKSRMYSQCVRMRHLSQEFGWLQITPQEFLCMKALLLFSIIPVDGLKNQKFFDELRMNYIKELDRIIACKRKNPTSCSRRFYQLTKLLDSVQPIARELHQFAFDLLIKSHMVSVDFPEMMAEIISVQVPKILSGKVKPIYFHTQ

[3] = test system: AR; test: AR transactivation luciferase assay in COS-1 cells with GSK3β; type: cell-based, human
Method: as §1
Target sequence in this assay (P10275 with tags, fused parts or gaps DEL79-80/DUP473-473): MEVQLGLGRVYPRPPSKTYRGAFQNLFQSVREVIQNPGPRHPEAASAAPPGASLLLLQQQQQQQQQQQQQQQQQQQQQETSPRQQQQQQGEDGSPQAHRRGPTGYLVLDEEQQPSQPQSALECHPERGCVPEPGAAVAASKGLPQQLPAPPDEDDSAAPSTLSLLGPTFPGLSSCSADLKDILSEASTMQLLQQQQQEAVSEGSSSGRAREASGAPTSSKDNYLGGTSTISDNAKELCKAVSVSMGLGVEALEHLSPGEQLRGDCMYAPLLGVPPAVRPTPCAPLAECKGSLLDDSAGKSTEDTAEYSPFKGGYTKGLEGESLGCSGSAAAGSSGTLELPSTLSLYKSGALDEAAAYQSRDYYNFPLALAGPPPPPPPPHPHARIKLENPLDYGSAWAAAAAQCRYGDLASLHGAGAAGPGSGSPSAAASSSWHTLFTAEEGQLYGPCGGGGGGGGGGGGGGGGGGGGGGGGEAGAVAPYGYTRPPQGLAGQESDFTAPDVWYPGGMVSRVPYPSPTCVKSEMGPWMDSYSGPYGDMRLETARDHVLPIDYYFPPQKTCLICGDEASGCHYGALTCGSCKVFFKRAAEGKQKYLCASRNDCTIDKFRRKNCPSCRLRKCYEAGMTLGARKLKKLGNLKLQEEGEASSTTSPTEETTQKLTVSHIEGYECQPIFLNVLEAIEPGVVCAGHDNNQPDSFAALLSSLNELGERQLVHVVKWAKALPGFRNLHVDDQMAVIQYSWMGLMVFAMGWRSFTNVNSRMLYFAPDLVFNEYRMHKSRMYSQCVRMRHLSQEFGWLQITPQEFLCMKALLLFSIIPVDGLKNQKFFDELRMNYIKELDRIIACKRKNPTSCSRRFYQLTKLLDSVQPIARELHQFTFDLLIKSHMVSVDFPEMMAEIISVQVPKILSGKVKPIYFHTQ

[4] = test system: AR AF-1 / AF-2; test: GAL4-ARN / GAL4-AR-LBD pG5-Luc reporter assay in COS-1 cells; type: cell-based, human
Method: as §1

[5] = test system: AR; test: In vitro kinase assay of GSK3β on AR fragments; type: biochemical, human; settings: 30 min at 30° C.
[6] = test system: AR; test: GST pull-down assay GSK3β / AR; type: binding, human; settings: presence or absence of DHT
Method: 5 μl of in vitro-translated β5S]-labeled AR was incubated with the GST or GST-GSK3β bound to glutathione-Sepharose beads in a pull-down assay. After extensive washing, bead-bound protein complexes were loaded onto 8% SDS-PAGE and analyzed by Phosphorlmager. The input represents 20% amount of [^35S]-labeled proteins used in each pull-down assay. […] COS-1 cells were solubilized in RIPA buffer containing 0.5% NP-40 and protease inhibitors. Immunoprecipitation was performed using mouse HA antibody (1:1000) or normal mouse IgG (N-IgG) and then analyzed by Western blot with anti-AR NH27 (1:1000) or anti-GSK3β (1:1000) antibodies, followed by incubation with AP conjugate goat anti-rabbit or rabbit anti-mouse IgM antibodies, and visualized with AP conjugate kit (Bio-Rad).
Target sequence in this assay (P10275 with tags, fused parts or gaps DEL79-80/DUP473-473): as above
Target sequence in this assay (P49841 whole entry partner, the tested form may be a part): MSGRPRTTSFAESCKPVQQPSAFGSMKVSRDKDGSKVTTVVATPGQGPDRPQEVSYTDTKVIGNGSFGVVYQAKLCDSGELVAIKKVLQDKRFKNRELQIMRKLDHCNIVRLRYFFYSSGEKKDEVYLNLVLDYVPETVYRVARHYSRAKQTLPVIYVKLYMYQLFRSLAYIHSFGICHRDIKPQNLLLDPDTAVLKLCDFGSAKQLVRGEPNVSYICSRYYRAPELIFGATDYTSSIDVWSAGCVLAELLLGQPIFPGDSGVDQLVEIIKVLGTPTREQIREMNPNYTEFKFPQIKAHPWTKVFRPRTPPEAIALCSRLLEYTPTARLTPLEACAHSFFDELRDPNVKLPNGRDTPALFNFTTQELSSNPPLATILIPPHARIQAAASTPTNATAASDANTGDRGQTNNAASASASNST

[7] = test system: AR; test: AR transactivation luciferase assay in LNCaP cells with GSK3β; type: cell-based, human; settings: MMTV-Luc, DHT
Method: as §1
Target sequence in this assay (P10275 whole entry T878A, the tested form may be a part): as the sequence (P10275 whole entry T878A, the tested form may be a part) above

[8] = test system: PSA expression in LNCaP cells; test: PSA promoter activity and PSA mRNA (Northern blot) in LNCaP cells with GSK3β; type: cell-based, human
Method: as §1

B1: GSK3β: glycogen synthase kinase 3β, serine/threonine protein kinase (SEQ ID NO:5), wild type (protein)
chain: MSGRPRTTSFAESCKPVQQPSAFGSMKVSRDKDGSKVTTVVATPGQGPDRPQEVSYTDTKVIGNGSFGVVYQAKLCDSGELVAIKKVLQDKRFKNRELQIMRKLDHCNIVRLRYFFYSSGEKKDEVYLNLVLDYVPETVYRVARHYSRAKQTLPVIYVKLYMYQLFRSLAYIHSFGICHRDIKPQNLLLDPDTAVLKLCDFGSAKQLVRGEPNVSYICSRYYRAPELIFGATDYTSSIDVWSAGCVLAELLLGQPIFPGDSGVDQLVEIIKVLGTPTREQIREMNPNYTEFKFPQIKAHPWTKDSSGTGHFTSGVRVFRPRTPPEAIALCSRLLEYTPTARLTPLEACAHSFFDELRDPNVKLPNGRDTPALFNFTTQELSSNPPLATILIPPHARIQAAASTPTNATAASDANTGDRGQTNNAASASASNST
Q: For B1, which hGR transactivation [1] is on record?
A: failed to inhibit

Q: And the “endogenous expression of AR” value [2]?
A: little change

Q: And the “AR-mediated transcription of the luciferase reporter reduced by” value ([3]; ARE4-Luc, 10 nM DHT)?
A: about 40%

Q: And the “DHT-mediated AR transactivation / AR transcriptional activity” value ([3]; MMTV-Luc)?
A: inhibits

Q: And the “activity of GAL4-AR-LBD” value [4]?
A: did not influence

Q: And the “constitutive transcriptional activity of GAL4-ARN” value [4]?
A: inhibited

Q: And the “phosphorylation of GST-AR38-560 (N-terminus)” value [5]?
A: significantly phosphorylated

Q: And the “phosphorylation of GST-AR-DBD-LBD or 6His-AR-LBD” value [5]?
A: slightly phosphorylated

Q: And the “binding of 35S-methionine-labeled AR to GST-GSK3β” value [6]?
A: bind specifically

Q: What about the “activity of AR” value [7] of the same molecule?
A: reduced

Q: What about the “expression of PSA mRNA” value ([8]; Northern blot, 10 nM DHT) of the same molecule?
A: reduced

Q: And the “DHT-mediated induction of transcription from the PSA promoter” value ([8]; PSA-luc)?
A: repressed
